From paper PMC2911020

Assays:
[1] = target: PapDG chaperone-adhesin complex (His-tagged PapD, class II PapG), purified and coumarin-labeled (Escherichia coli) (UniProt P15319); assay: other fluorescence titration
[2] = target: PapC usher (Escherichia coli) (UniProt P07110); details: cited from earlier work

In the case of “PapC F21A, purified, His-tag cleaved off (pQY21) (from UniProt P07110 25-836) (natural protein)”, the Kd [1] is reported as 62 nM.
With “PapC R652A, purified, His-tag cleaved off (pQY652) (natural protein)” the Kd [1] was 1590 nM.
“PapC usher, wild type, purified, His-tag cleaved off (pDG2) (from UniProt P07110 25-836) (natural protein)” showed a Kd [1] of 59 nM.
In the case of “PapDG chaperone-subunit complex (from UniProt P15319)”, the Kd [2] is listed as 90 nM.
